Laboratory results taken from the supplement of paper PMC10567573.
± gives the standard deviation.

Experiment: protein stability index of a GFP-peptide fusion (GPS, HEK-293T) (PSI 1-6); higher = more stable
[1] = treatment: DMSO, c terminus: a fixed tail appended
[2] = treatment: MLN4924 1 uM, 8 h, c terminus: a fixed tail appended
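Also: 24-mer peptide tiles fused after GFP, lentivirally expressed, FACS-sorted into six equal bins by GFP/DsRed ratio, decoded by Illumina sequencing, PSI is the read-weighted mean bin number.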

Sequence | protein stability index [1] | protein stability index [2] | protein stability index (treatment: DMSO, c terminus: native) | protein stability index (treatment: MLN4924 1 uM, 8 h, c terminus: native)
VDENDSHEGEDQFLSLEASTETLV [DLC1] | 5.66 ± 0.16 | 5.56 ± 0.2 |  | 
EWETEVEMDKLRASDIMEPNLTYV [CLCN6] | 3.85 ± 0.32 | 4.08 ± 0.19 |  | 
RRSPRPDHPGTPPHKTFRKLRLFD [WEE1] | 3.4 ± 0.078 | 3.71 ± 0.34 |  | 
GCSQFRLAVLDWNQRAMDLYKALG [SAT2] | 2.2 ± 0.39 | 2.02 ± 0.18 |  | 
SQMFPSSKARTKSLLGDDVFSTMA [FBF1] | 2.89 ± 0.26 | 2.97 ± 0.21 |  | 
KQQLVDAFLKLAKQRSVCTWGKNK [FAN1] | 2.31 ± 0.21 | 2.25 ± 0.16 |  | 
SRRDDLEALGHMFMYFLRGSLPWQ [CSNK1G1] | 3.48 ± 0.54 | 3.15 ± 0.86 |  | 
FRKIKDHFCPFENQFHTEIQILA [C8orf76] |  |  | 2.69 ± 1 | 3.26 ± 0.27
RPGPSASAASSAAAGEPLECPTCG [RNF208] | 5.3 ± 0.2 | 5.3 ± 0.28 |  | 
RQLLRDFQSRLPYQYLHYALFKAN [P3H4] | 2.49 ± 0.29 | 2.16 ± 0.43 |  | 
ECVASNNVGEISVSTRLTVLREDQ [PTPRD] | 4.63 ± 0.19 | 4.54 ± 0.15 |  | 
CVSHLIIVTVHYGCASFIYLRPQS [OR10K2] | 2.99 ± 0.35 | 3.04 ± 0.46 |  | 
FKEQLQALIPYVLNPSKLMEKEIN [ATL3] | 1.91 ± 0.28 | 2.22 ± 0.24 |  | 
PVAMRVAKLAINQGMEVDLVTGLA [AUH] | 2.65 ± 0.29 | 2.92 ± 0.5 |  | 
GGKNCKKPAEYGYVSLGRLGAAKG [CEBPB] | 3.64 ± 0.27 | 3.52 ± 0.54 |  | 
PDMETKLLFMTSRVRFGQQKRYQD [INTS3] | 2.92 ± 0.24 | 3.09 ± 0.32 |  | 
EEKMETKTESSGIETEPTVHHLPL [EPB41L3] | 5.56 ± 0.37 | 5.49 ± 0.27 |  | 
TVERPFYDLWASDNPLDRPLVGQD [NOP53] | 4.09 ± 0.37 | 4.2 ± 0.15 |  | 
GIVVWNMDVERQETPEWLDSDSCQ [WDFY2] | 3.3 ± 0.2 | 3.5 ± 0.32 |  | 
QKQRLREILEQQQQERNDTNFHGV [ZNF277] | 4.53 ± 0.3 | 4.59 ± 0.23 |  | 
KQTIGNSCKACGYRGMLDTHHKLC [EIF5] | 2.8 ± 0.37 | 2.81 ± 0.5 |  | 
LFVGLYYNVIIGWSIFYFFKSFQY [SLC6A17] |  | 3.17 ± 1.5 |  | 
LRRTMQELEIELQSQLSMKAGLEN [KRT15] | 2.86 ± 0.22 | 3.13 ± 0.38 |  | 
